assay: yeast display, Sf9 membrane polyspecificity reagent, FACS + sequencing; frameworks hold sequencing errors
Method in brief: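 Galactose induction of a Saccharomyces cerevisiae BJ5465 synthetic nanobody display library ran 36–48 hours. The cells were then stained for 1 hour at 4 °C with 10% biotinylated, detergent-solubilized Sf9 membrane reagent, pulled down on streptavidin microbeads and FACS-sorted into low and high (top ~1%) gates on expression and reagent-binding fluorescence. Labels for polyreactivity follow the gate of origin.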

| Sequence | polyreactivity (PSR sort gate) |
| --- | --- |
| QVKLVESGGGLVQAGGSLRLSCAASVRIFALNTMGWYREAPGKERELDAAISYRGGSTYYADSVKGRFTISRDNAKTTVYLQMNSLKPEDTAVYYCAARCYSYSRRYGYDYWGQGTQVTVSS | high polyreactivity |
| QVKLVESGGGLVQAGGSLRLSCADSGLIFYKYAMGWYRKAPGKERELVAAITSGGSTNYADSVKGRFTISRDNAKNTVYLQMNSLKPEDTAVYYCNADYNHYLVVRWWYPPVDYWGQGTQVTVSS | low polyreactivity |
| QVKLVESGGGLVQAGGSLRLSFAASAGTFNSYAKGWYRQEPGKERELVATISYSGGSTYYADSVKGRFTISRDNAKYTVYLQMNSLKPEDTAVYYCAKVRYYPYSPGGLDYWGQGTQVTVSS | low polyreactivity |
| QVKLVESGGGLVQAGGSLRLTCAASGSTFGPYAMGWYRQEPGKERELVSTITRNGGSTYYADSVKGRFTISRDNAKNTVYLQMNSLKPEDTAVYYCNAEGRWSSFTQRMDYWGQGTQVTVSS | low polyreactivity |
| QVKLVESGGGLVQAGGSLSLSFAYSGITFYGNAMGWYRQAAGTERELVAAITGGGGTNYADSLKGRFTISRDNEKNTVYLQMNSLKPEDTAVYYCNRDYFVWFQRGQYKRGSSWYDYWGQGTQVTVSS | low polyreactivity |
| QVKLVESGGGLVQAGRSLRLICAASGFTFHYNSMGWYRQAPGKEREFVAAISGSGDRTYYADSGKGRFTISRDNAKNTVYLQMNSLKPEDTAVYYCATSVRQNYFYSYDYWGQGTQVTVSS | high polyreactivity |
| QVKLVESGGGLVQAGRSLRLSCAASGFTFSANTMGWYRQAPGKERELVAAITRGGRTYYADSVKGRFTISRDNAKNTVYLQMNSLKPEDTAVYYCAKRATWYTVTREGYWGQGTQVTVTS | high polyreactivity |
| QVKLVESGGGLVQAGVSLRLSCAASGRIFVFYAMGWYRQAPGKERELVAAITASSTRTYYADSVKGRFTISRAHAKNTVYLQMNSLKPEDTAVYYCARDIRQYILYGRGDYWGQGTQVTVSS | low polyreactivity |
| QVKLVESGGGLVQSGGSLRLSCAAYGRIFATNAMGWYRPAPGKERELVATITRSAGRTYYADSVKGRFTISRVKAKHSVYLQMNRLKPEDTAVFYFAASYWDTGPGYREYDYWGEGTQVTVSS | low polyreactivity |
| QVKLVESGRGLVQAGGSLRLSCAASGRIFTNNAMGRYRPATGKERELVAAINVSGGRTYYADSVKGRFTISRENAKNTVYLQMISLKPDDTAVYYCNKVKETYMDYWGQGTQVTVSS | high polyreactivity |
| QVKLVETGGGLVQAGGSLRLSCAASGSTFEHYAMGWYRQAPGKERELVAAISYTGGNTYYAYSVKGRFTISRDNAKNTVYLQMNSLKPEDTAVYYCAAAPLYYHRRGYYYWGQGTQVTVSS | high polyreactivity |
| QVKVVESGGGLVQAGGSLRLSCAASGSIYVGYAMGWYRQAPGKERELVAAISWSGDSTYYADSVKGRFTISRDNAKNTVYLQMNSLKPEDTAVYYCAVDYAEIGPRREFEYDYWGQGTQVTVSS | low polyreactivity |
| QVLLQESGGGLVQAGGSLRLGCAASGTISPAYYMGRYHQAPGKEREFVAAITYGTNTYYADSVKGRFTISRDNAKNNVYLQMNSLKPEDTAVYYCSASAGYNGAHDYWGQGTQVTVSS | low polyreactivity |
| QVLLQESGGGLVQAGGSLRLSCAARGNIFSAGGMGWYSQAPVNVRELVAGIGTGTSTNYADSVKGRFTISRDNAKNTVYLQMNSLKPEDTAVYYCASGYYSGLSHWFWGQGTQVTVSS | low polyreactivity |
| QVLLQESGGGLVQAGGSLRLSCAASGTISTDIRMGWYRLAPGKEREFVASIDGCSTTYYADSVKGRFTISRDNAKNTVFLQMNSLKPEDTAMYYCAAREATEFYLYYWGQGTQVTVSS | low polyreactivity |
| QVLLQESGGGLVQAGGSLRLSCEAIGNIFSAGGMGWYRQAPVNERELVAGIGTGTSTNYAESVKGRFTISRDNAKNTVYLQMNSLNPEDTAVYYCAAAYYSGLSHWYWGQGTQVTVSS | low polyreactivity |
| QVLLQESGGGLVQEGGSLRLTCAASGNIFSAGGMAWYRQATVNERELVAGIGTGTSTNYADSVKGRFTISRDNAKNTVYLQMNSLKPEDTAVYYCAAAYYSGLSHWYWGQCTQVTVSS | low polyreactivity |
| QVLLQESGGGLVQPGGSLLLSCAASGNIFSAGGMGWYRQAPVNEPELVAGIGTGTSTNYADSVKGRFTISRDNAKNTVFLQMNSLNPEDTAVYYCAAAYYSGLSHWYWGQGTQVTVSS | low polyreactivity |
| QVLLVDSGGGLVQAGGSLRLSCAASGRIFGPYTMARYIQAPGPERELVAAISWSGGSTYYADSVKGRFTISRDNAKNNVFLQMNSLKPEDSAVYYCNAYHPFPQYEGGSWGQGTQVTVSS | low polyreactivity |
| QVLLVDSGGGLVQAGGSLSLICAASGFTFYYNAMGWYRQAPGKERELVAGISGRGGTTYYADSVNGRFTISRDNAKNTVYLQMNSLKPEDTAVYYCAARKVRARSKFEYWGQGTQVTVSS | high polyreactivity |
| QVLLVEAGGGLVHAGGSLRLSCAASGLIFGYYAMRWYRQAPWKERELVAAISFSGGSSYYADSVKGRFTISRDNAKNTDSLQMNSLKPEDTAVYYCAADLDGSSEYEYWGQGTQVNVSS | low polyreactivity |
| QVLLVESGGCLVQEGGSLRFSCAASGFIFAYYAMGWYRPAPGKERELVAAITSDGATYYADSVKGRFTISRDNAKNTVYLQMNSLKPEATAVYYCNTYWLLRPGYIYWGQGTQVTVSS | high polyreactivity |

| Sequence | polyreactivity (PSR sort gate) |
| --- | --- |
| QVLLVESGGGLVQAGGILRLSCAASGRILPFNAMGWYRQAPGKAREFVAANSRVSGRTYYADSVKGRFTISRDNAKNTVYLQMNSLKPEDTAVYYCATDTYSYGYEYWGQGTHVTVSS | high polyreactivity |
| QVLLVESGGGLVQAGGSLRLSCAASGFIFVDYAMGWYRQAHGKERELVAAITSSGDRTYYADSVKGRFTISRDNAKNTVYLQMNSLKPEDTAVYYCNADWSTACYTSYDYWGQGTQVTVSS | low polyreactivity |
| QVLLVESGGGLVQAGGSLRLSCAASGFTFNRYDMVWYRQAPGTEREKVARITRGGSTKYADSVKGRFTISRDNAKNTVYLQMKSLKPEDTPVSYCAAGPVKRYVVQGNYWGQGTQVTVSS | high polyreactivity |
| QVLLVESGGGLVQAGGSLRLSCAASGGTFLFYGMGWYRQAPGKERELVAVITWSGGSTYYADSVKGRFTISRDNAKNTVNLQMNSLKPEDTAVYYCNAANTGSPDYQSIGYNFNYWGQGTQVTVSS | low polyreactivity |
| QVLLVESGGGLVQAGGSLRLSCAASGIILGDNARGWYRQAPGKDRVLDATISTSGVSTYYADSVKGRFTISRDNAKKTVNFQMNSLKPQDTAVYYCAASNEVPWRFPDDSWGQGTQVTVSS | low polyreactivity |
| QVLLVESGGGLVQAGGSLRLSCAASGRTFARNTMGWYRQAPGKERELVAGITSTGSTNYADSVKGRFTISRDNAKNTVYLQMNSLKPEDTAVYYCNARRYRPGSQYGYDYWGQGTQVTVSS | high polyreactivity |
| QVLLVESGGGLVQAGGSLRLSCAASGRTLPPNAMGWYRQAPGKERELGAGITWSGGSTYSADSVKGRFTISRDNAKNTVYLQMNSLKPEDTAVYYCAASRSFPGYGLYYYWGQGTQVTVSS | low polyreactivity |
| QVLLVESGGGLVQAGGSLRLSCAASGSTFPGNAMGWYRQAPGKERELVARINDGADTNYADSVKGRFTISRDNAKNTVNLQMNSLKPEDTAVYYCATPYYDGRTHFDSWGQGTQVTVSS | low polyreactivity |
| QVLLVESGGRLVQAGGSLRLSSAASGRTLNINAMGWYRQAPGKERELVAVISFNGGGTYYADSVKGRFTISRDNGKNTVYLQMNSLKPEDTAVYYCNAVRDRYASDYWGQGTQVTVTS | low polyreactivity |
| QVMLVESGGGLVQAGGSLRLSCAASGSIFKSNAMGWYRQAPGKERELVAAITRSGGSTYYADSVKGRFTISRDNAKYTVYLQMNSLKPEDTAVYYCARRPGKGNNYWGKGTQVTVSS | high polyreactivity |
| QVNHVESGGGLVQAGGSLRLTCAASGRTFSRYVMGWYRQSPGKERELVAAISRTGGRTYYADSVKGRFTISRDNAKNSVYLQMNSLNPEDTAVYYCYAGTVLISTYDYWGQGTQVTLSS | high polyreactivity |
| QVNLEESGGGLVQAGVILRLSSAASGSIFYRNAMGWYRQAPGKEREWVAAISSGGSTYYADSVKGRFTISRDNAKNTVYLQMNSLKPEETAVYYCAKDAHIWGYRDYEYWGLGTQVTVSS | high polyreactivity |
| QVNLVDSGGGLVQAGGSLRLSCAASGSTFRNNAMGWSRQAPGKERELVAVITGDGGSTYYADSVKGRFTISRDNAKNTVYLQMNSLKPEDTAVYYCNARSIRYYRFRLRFGYWGQGTQVTVSS | low polyreactivity |
| QVNLVESGVGLVQAGVSLRLSCAASGRIFQYYAMGWYRQATGKERELVAAISRSGGSTYYADSVKGRFTISRDNANNTVYLQMNSLKPEDTAVYYCAKVYRGFSYGYCGQGTQVTVSS | high polyreactivity |
| QVPLVASGGGLVQAGGSLRLSCSASGRTFQYNAMGCYRQAPGKERELVAAITKRGTSTYFADSVKGRFTISRDNAKNTVYLQMNRLIPEDTAVYYCAALEGSLTGWQTYDYWGQGTQVTVSS | low polyreactivity |
| QVPLVDSGGGLVQAGGSLRLSCAASGRSYGIYAMGWYIQAPGKERELVASITGRGGSTYYADSVKGRFTISRDNAKNTFYLQKNSLKPDDTAVYFCAARDRPYVHYSGLDYWGQGTQVTVSS | high polyreactivity |
| QVPLVESGGGLVHAGGSLRLSCAASGIILHDNTMGWYRQAPGKERELVAAITSDGSTNYADSVKGRFTISSDNAKNTVYLQMNSLKPEDTAVYYCNTDDGPYTEFDYWRQGTQVTVSS | low polyreactivity |
| QVPLVESGGGLVQAGGSLRLICAASGRIFYRYAMVWYRQAPGKERELVATISRSGGSTNYADSVKGRFTISRDNAKNTVYLQMNSLKPEDTAVYYCNARYLSTRSGDYWGQGTQVTVSS | high polyreactivity |
| QVPLVESGGGLVQAGGSLRLSCAACGFIFGSYSMGWYRQAPGKERELVAAITSDGNTDYADSVKGRFTISRDNAKNTVYLQMNSLKPEDTAVYYCATDWVDHYDYWGQGTQVTVSS | low polyreactivity |
| QVPLVESGGGLVQAGGSLRLSCAASGRTFVGYAMGWSSQAPGKDRELVARITGRSGSTYYADSVKGRFTISRDNAKNTVYLQMNSLKTEDTAVYDCAKRITYYYPGYDDWGQGTQVTVAS | low polyreactivity |
| QVPLVESGGGLVQAGGSLRLSCAASGRTFWNYAMGWYRPAPGKERELVAVSRFSDGSTYYADSVKGRFTISRDNAKNTVYLQMNSLKPEDTAVDDGAAKGPRRWGSGFDYWGQGTQVTVSS | low polyreactivity |

Source: the nanobody polyreactivity screen of Harvey et al. (2022)
